# Test results reported in patent US20070269440A1, “Stimulators of osteoblastogenesis and applications of the same” (Board of Trustees of the University of Arkansas, priority 2006, published 2007).
# Assays:
# [1] = tested on: distracted tibia of 21-month-old C57BL6 mice; test: Distraction osteogenesis in aged mice, new bone in DO gap by single-beam radiography; format: in vivo, mouse; settings: 21-month old mice, sTNF-RI 8.0 mg/kg s.c. every other day, 3-day latency, 14 days of distraction; control 27.3±8.4%, p<0.038
# Description: For initial radiography a Xerox Micro 50 closed system radiography unit (Xerox, Pasadena, Calif.) was used at 40 kilovolts (3 mA) for 20 seconds with Kodak X-OMAT film to radiograph the specimens. For quantitation, the radiographs and histology slides are video recorded by radio camera under low power (1.25× objective) microscopic magnification and transferred into a computer (Macintosh IIx Image 1.28c). The radiographs allow for quantitation of mineralized bone within the distraction gap. The measured distraction gap area was outlined from the outside corners of the two proximal and the two distal cortices forming a quadrilateral region of interest. The mineralized new bone area in the gap was determined by outlining the regions with radiodensity equivalent to or greater than the adjacent medullary bone. Mean pixel density of the defined distraction gap was measured using NIH Image on an arbitrary 256 degree scale. […] The percentage of new mineralized bone area within the distraction gap (% new bone) was calculated by dividing mineralized bone area/gap area. (6, 7).
# Twenty-four 21-month-old C57BL6 mice underwent placement of an external fixator and osteotomy to the left tibia. The surgeries were completed over a four-day period. After surgeries there were eleven mice in the control group (one died during surgery) and twelve mice in the group to be treated with sTNF-RI. […]
# [2] = tested on: distracted tibia of 21-month-old C57BL6 mice; test: Distraction osteogenesis in aged mice, new bone in DO gap by histology; format: in vivo, mouse; settings: 21-month old mice, sTNF-RI 8.0 mg/kg s.c. every other day, 3-day latency, 14 days of distraction; control 31.2±12.4%, p<0.009
# Description: After radiography, the distracted tibiae were decalcified in 5% formic acid. The specimens were paraffin-embedded and cut into 5-7 micron longitudinal (coronal) sections on a microtome (Leitz 1512, Wetzlar, Germany) for staining (hematoxylin & eosin). The sections chosen for analysis were selected to represent a central or near central gap location. This was accomplished by choosing slides that contained all four full thickness cortices with intact marrow spaces on both the proximal and distal ends of the distraction gap. All organized osteoid/sinusoid columns were defined as new bone. We defined periosteal new bone as that outside of each cortex and endosteal new bone as that within the cortices. […] The distraction gap area was outlined from the outside corners of the two proximal and the two distal cortices forming a quadrilateral region of interest, and the area of that region (gap area) was recorded. Both the proximal and distal endosteal new bone matrix, which is easily distinguished from the central fibrous tissue at the PMF, was outlined and the area recorded (new bone area). The percentage of new bone within the distraction gap was calculated by dividing new bone area/gap area (8, 9-11). […]
molecule,measurement,setting,value
"sTNF-RI: soluble TNF receptor Type I, a TNF blocker (TNF antagonist) (protein, UniProt P19438 30-211, looked up, extracellular domain) extracellular domain: LVPHLGDREKRDSVCPQGKYIHPQNNSICCTKCHKGTYLYNDCPGPGQDTDCRECESGSFTASENHLRHCLSCSKCRKEMGQVEISSCTVDRDTVCGCRKNQYRHYWSENLFQCFNCSLCLNGTVHLSCQEKQNTVCTCHAGFFLRENECVSCSNCKKSLECTKLCLPQIENVKGTEDSGTT","Mineralization of the DO gap, as measured from the radiographs (% of the distraction gap)",[1],55.2±8.8 % SEM
same,"Mineralization of the DO gap, as measured histologically (% of the distraction gap)",[2],76.1±7.5 % SEM
